The target of test [1] is T1, eOD-GT8 (monomer), synthetic construct eOD-GT8-Avi-3C-His (synthetic construct (engineered HIV-1 …)).
The target in another test is T2, Centromere protein B (Homo sapiens (product PRO-390 from …, UniProt P07199)).
T2 construct: also called centromere B
Nature of the test: ELISA. To be noted: both partners purified. In general terms: ELISA stands for enzyme-linked immunosorbent assay.

The next test has as its target Jo-1 antigen (Bos taurus (assumed), UniProt Q2KI84). Nature of the test: ELISA. The settings on record: both partners purified.
The target of another test is Scl-70 antigen (Bos taurus (assumed), UniProt A0AAA9TV68). Description: ELISA. To be noted: both partners purified.
The next test addresses SSB (La) antigen (Bos taurus (assumed), UniProt P10881). Nature of the test: ELISA. To be noted: both partners purified.
The target of test [2] is Ubiquitin Protein Ligase E3A (UBE3A) (Homo sapiens, assumed, UniProt Q05086). Description: ELISA. The settings on record: both partners purified.
Another test has as its target eOD-GT8 (24-mer) (synthetic construct (engineered HIV-1 …)). Nature of the test: BLI. To be noted: both partners purified.
Another test addresses eOD-GT8 (heptamer) (synthetic construct (engineered HIV-1 …)). Description: BLI. To be noted: both partners purified.
The target of test [3] is T1, eOD-GT8 (monomer), synthetic construct …. Description: SPR. The settings on record: both partners purified.
Test [4] concerns the target T3, eOD-GT6, synthetic construct eOD-GT6-Avi-3C-His (synthetic construct (engineered HIV-1 …)).
T3 construct: source: produced in house (Duke Human Vaccine Institute and VRC/NIAID)
Nature of the test: SPR. To be noted: both partners purified.

Values joined by “and” are separate entries in the source; they are usually repeats but may differ in a detail not shown here. Identical values can stand only once. Bounds are passed on as bounds.

T3 sequence (heavy, as listed by the source): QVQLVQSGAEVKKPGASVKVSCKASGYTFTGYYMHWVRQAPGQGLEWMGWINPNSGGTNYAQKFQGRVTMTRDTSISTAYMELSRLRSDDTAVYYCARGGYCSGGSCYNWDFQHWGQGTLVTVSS
Sequence of Ubiquitin Protein Ligase E3A (UBE3A) (Q05086 whole entry): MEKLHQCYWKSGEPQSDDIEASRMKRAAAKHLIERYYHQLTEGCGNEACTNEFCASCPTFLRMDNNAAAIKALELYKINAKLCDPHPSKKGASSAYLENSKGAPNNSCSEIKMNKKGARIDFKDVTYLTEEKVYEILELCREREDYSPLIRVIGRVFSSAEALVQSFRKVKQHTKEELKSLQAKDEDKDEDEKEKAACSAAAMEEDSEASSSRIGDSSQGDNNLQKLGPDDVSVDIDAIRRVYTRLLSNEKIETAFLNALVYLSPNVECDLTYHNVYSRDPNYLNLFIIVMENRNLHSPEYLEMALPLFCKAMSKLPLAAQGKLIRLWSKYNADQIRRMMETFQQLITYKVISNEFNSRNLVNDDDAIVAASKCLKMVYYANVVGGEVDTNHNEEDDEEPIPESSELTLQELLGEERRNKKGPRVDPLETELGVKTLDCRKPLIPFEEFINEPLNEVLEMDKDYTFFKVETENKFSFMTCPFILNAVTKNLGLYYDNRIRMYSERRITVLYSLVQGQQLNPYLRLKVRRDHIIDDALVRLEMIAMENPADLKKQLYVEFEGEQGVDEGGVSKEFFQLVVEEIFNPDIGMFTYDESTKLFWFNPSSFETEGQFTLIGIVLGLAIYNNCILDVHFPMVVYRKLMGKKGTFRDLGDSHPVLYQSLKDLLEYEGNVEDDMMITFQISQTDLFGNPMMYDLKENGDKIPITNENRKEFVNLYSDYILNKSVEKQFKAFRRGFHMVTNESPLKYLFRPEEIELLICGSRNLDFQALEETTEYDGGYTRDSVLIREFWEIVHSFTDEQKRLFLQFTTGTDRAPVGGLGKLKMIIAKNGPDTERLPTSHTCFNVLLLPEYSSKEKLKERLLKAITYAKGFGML
T2 sequence (P07199 whole entry): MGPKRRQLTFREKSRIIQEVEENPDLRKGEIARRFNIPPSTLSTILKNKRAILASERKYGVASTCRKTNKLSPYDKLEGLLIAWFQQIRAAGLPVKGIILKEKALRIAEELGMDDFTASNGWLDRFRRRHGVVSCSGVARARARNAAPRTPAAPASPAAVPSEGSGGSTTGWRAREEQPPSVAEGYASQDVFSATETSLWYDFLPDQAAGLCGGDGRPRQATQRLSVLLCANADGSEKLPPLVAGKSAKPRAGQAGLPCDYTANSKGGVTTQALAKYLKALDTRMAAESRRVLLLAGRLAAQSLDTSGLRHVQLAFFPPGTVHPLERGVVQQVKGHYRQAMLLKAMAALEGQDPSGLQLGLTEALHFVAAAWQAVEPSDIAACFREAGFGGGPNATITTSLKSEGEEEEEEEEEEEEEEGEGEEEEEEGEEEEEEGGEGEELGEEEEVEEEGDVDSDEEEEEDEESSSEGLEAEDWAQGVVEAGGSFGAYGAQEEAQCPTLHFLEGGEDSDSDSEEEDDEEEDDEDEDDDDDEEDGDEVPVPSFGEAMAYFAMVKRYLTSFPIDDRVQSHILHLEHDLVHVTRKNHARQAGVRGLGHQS
Sequence of Scl-70 antigen (P11387 whole entry): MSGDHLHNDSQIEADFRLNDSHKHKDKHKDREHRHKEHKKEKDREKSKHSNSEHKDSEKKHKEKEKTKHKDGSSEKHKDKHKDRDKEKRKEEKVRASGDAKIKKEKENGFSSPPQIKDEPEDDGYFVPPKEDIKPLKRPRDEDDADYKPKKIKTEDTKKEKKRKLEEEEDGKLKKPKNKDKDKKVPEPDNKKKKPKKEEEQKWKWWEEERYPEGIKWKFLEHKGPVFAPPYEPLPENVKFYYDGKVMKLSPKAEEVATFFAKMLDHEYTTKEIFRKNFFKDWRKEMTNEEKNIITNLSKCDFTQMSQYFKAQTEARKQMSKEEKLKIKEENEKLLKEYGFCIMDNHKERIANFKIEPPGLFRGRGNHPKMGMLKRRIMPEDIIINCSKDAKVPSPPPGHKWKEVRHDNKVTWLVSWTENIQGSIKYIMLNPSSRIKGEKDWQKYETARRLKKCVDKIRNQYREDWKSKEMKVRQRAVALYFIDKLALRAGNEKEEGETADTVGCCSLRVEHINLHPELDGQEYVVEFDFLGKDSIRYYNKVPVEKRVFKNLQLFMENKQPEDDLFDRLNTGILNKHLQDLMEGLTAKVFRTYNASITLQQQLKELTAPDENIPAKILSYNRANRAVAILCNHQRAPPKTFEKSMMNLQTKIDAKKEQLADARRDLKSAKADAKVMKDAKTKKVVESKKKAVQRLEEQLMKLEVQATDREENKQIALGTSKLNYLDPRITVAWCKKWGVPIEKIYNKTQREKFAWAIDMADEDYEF
Sequence of SSB (La) antigen (P05455 whole entry): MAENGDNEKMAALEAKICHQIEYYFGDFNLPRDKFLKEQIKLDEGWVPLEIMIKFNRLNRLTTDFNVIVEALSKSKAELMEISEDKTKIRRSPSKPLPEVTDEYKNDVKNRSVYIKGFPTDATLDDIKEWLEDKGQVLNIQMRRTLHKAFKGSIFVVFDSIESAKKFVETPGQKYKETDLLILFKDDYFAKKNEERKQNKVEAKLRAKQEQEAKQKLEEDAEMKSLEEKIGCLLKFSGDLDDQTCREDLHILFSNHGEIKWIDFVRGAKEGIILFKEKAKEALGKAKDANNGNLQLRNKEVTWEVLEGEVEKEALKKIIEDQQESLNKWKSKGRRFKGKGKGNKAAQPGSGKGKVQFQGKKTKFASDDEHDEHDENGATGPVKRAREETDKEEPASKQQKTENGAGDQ
Sequence of eOD-GT8 (24-mer) (synthetic construct (engineered HIV-1 …)) (heavy, as listed by the source): as the sequence (heavy, as listed by the source) above
Sequence of eOD-GT8 (heptamer) (synthetic construct (engineered HIV-1 …)) (heavy, as listed by the source): as above
Sequence of Jo-1 antigen (P12081 whole entry): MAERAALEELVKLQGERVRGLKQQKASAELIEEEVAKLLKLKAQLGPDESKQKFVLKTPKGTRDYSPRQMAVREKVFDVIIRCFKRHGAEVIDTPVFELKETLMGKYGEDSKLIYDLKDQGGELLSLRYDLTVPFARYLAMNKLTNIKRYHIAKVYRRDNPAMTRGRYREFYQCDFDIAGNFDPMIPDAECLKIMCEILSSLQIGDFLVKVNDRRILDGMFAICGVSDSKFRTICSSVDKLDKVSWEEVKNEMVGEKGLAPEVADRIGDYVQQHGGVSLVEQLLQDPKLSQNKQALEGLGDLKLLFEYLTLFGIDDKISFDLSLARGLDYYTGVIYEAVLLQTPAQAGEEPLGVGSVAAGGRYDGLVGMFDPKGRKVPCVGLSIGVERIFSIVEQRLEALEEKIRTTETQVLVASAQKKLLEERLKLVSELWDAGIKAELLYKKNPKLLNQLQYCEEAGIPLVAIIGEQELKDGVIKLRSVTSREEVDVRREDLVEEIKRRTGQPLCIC

B1: VRC01 VJ.Rev (antibody, V domains shown)
VH: not shown
VL: EIVLTQSPATLSLSPGERATLSCRASQSVSSYLAWYQQKPGQAPRLLIYDASNRATGIPARFSGSGSGTDFTLTISSLEPEDFAVYYCQQYEFFGQGTKLEIK
On to B1, for which, in test [1], the binding result was “binds”.

B2: VRC23 V.Rev (antibody, V domains shown)
VH: not shown
VL: EIVMTQSPATLSVSPGERATLSCRASQSVSSNLAWYQQKPGQAPRLLIYGASTRATGIPARFSGSGSGTEFTLTISSLQSEDFAVYYCQQYETFGQGTKVEIK
Regarding B2, the binding result in the test with Centromere protein B, with Jo-1 antigen, with Scl-70 antigen and with SSB (La) antigen was “binds” each time.

B3: VRC20 V.Rev (antibody, V domains shown)
VH: not shown
VL: QSALTQPASVSGSPGQSITISCTGTSSDVGGYNYVSWYQQHPGKAPKLMIYEVSNRPSGVSNRFSGSKSGNTASLTISGLQAEDEADYYCNAFEFFGGGTKLTVL
For B3, the binding result in the test with Centromere protein B was “binds”.

B4: VRC01 L34M (antibody, V domains shown)
VH: QVQLVQSGGQMKKPGESMRISCRASGYEFIDCTMNWIRLAPGKRPEWMGWLKPRGGAVNYARPLQGRVTMTRDVYSDTAFLELRSLTVDDTAVYFCTRGKNCDYNWDFEHWGRGTPVIVSS
VL: EIVLTQSPGTLSLSPGETAIISCRTSQYGSLAWYQQRPGQAPRLVIYSGSTRAAGIPDRFSGSRWGPDYNLTISNLESGDFGVYYCQQYEFFGQGTKVQVD
For the molecule B4, the binding result in [2] is on record as “binds”.

B5: DH651.1 with 33TL34 reverted to the germline-encoded 33YM34 (antibody, V domains shown)
VH: QVQLVQSGGQMKKPGESMRISCRTSGYEFIECYMNWIRLAPGRRPEWMGWLKPRGGAVNYARSFQGRVTMTRDVYSDTAFLELRSLTPDDTAVYFCTRGKDCNYNWDFEHWGRGTPVTVSS
VL: EIVLTQSPHPALLSPGETAIISCRTSQYGSLAWYQQRPGQAPRLVIYSGSTRAAGIPDRFSGSRWGPDYNLTISNLESGDLGVYYCQQYEFFGQGTKVQVD
For B5, the binding result in test [2] is “no binding (tested: 100 μg/ml)”.

B6: VRC01 T33Y (antibody, V domains shown)
VH: QVQLVQSGGQMKKPGESMRISCRASGYEFIDCYLNWIRLAPGKRPEWMGWLKPRGGAVNYARPLQGRVTMTRDVYSDTAFLELRSLTVDDTAVYFCTRGKNCDYNWDFEHWGRGTPVIVSS
VL: EIVLTQSPGTLSLSPGETAIISCRTSQYGSLAWYQQRPGQAPRLVIYSGSTRAAGIPDRFSGSRWGPDYNLTISNLESGDFGVYYCQQYEFFGQGTKVQVD
As to B6, in test [2], the binding result is “no binding (tested: 100 μg/ml)”.

B7: VRC02 with 33TL34 reverted to the germline-encoded 33YM34 (antibody, V domains shown)
VH: QVQLVQSGGQMKKPGESMRISCQASGYEFIDCYMNWVRLAPGRRPEWMGWLKPRGGAVNYARPLQGRVTMTRDVYSDTAFLELRSLTADDTAVYYCTRGKNCDYNWDFEHWGRGTPVTVSS
VL: EIVLTQSPGTLSLSPGETAIISCRTSQYGSLAWYQQRPGQAPRLVIYSGSTRAAGIPDRFSGSRWGPDYNLTIRNLESGDFGLYYCQQYEFFGQGTKVQVD
As to B7, the binding result in test [2] is reported as “no binding (tested: 100 μg/ml)”.

B8: DH651.4 with 33TL34 reverted to the germline-encoded 33YM34 (antibody, V domains shown)
VH: QVQLVQSGGQMKKPGESMRISCRASGYEFIDCYMNWIRLAPGRRPEWMGWLKPRGGAVSYARPLQGRVTMTRDVYSDTAFLELRSLTVDDTAVYFCTRGKTCDYNWDFAHWGQGTPVTVSS
VL: EIVLTQSPGTLSLSPGETAIISCRTSQYGSLAWYQQRPGQAPRLVIYSGSTRAAGIPDRFSGSRWGPEYNLTISNLESGDFGVYYCQQYEFFGQGTKVQVD
On to B8, for which the binding result in test [2] was “no binding (tested: 100 μg/ml)”.

B9: DH651.2 with 33TL34 reverted to the germline-encoded 33YM34 (antibody, V domains shown)
VH: QVQLVQSGAQMKKPGESMRISCRASGYEFIDCYMNWIRLAPGRRPEWMGWLKPRGGAVNYARPLQGRVTMTRDVYSDTAFLELRSLTVDDTAVYFCTRGKTCDYNWDFAHWGQGTPVTVSS
VL: EIVLTQSPGTLSLSPGETAIISCRTSQYGSLAWYQQRPGQAPRLVIYSGSTRAAGIPDRFSGSRWGPEYNLTISNLESGDFGVYYCQQYEFFGQGTKVQVD
Turning to B9, in test [2], the binding result was “no binding (tested: 100 μg/ml)”.

B10: VRC01 with 33TL34 reverted to the germline-encoded 33YM34 (antibody, V domains shown)
VH: QVQLVQSGGQMKKPGESMRISCRASGYEFIDCYMNWIRLAPGKRPEWMGWLKPRGGAVNYARPLQGRVTMTRDVYSDTAFLELRSLTVDDTAVYFCTRGKNCDYNWDFEHWGRGTPVIVSS
VL: EIVLTQSPGTLSLSPGETAIISCRTSQYGSLAWYQQRPGQAPRLVIYSGSTRAAGIPDRFSGSRWGPDYNLTISNLESGDFGVYYCQQYEFFGQGTKVQVD
Turning to B10, in [2], the binding result is “no binding (tested: 100 μg/ml)”.

B11: 12A12 V.Rev (antibody, V domains shown)
VH: not shown
VL: DIQMTQSPSSLSASVGDRVTITCQASQDISNYLNWYQQKPGKAPKLLIYDASNLETGVPSRFSGSGSGTDFTFTISSLQPEDIATYYCAVLEFFGPGTKVEIK
On to B11, for which the binding result in test [1] is recorded as “binds”.

B12: VRC01 V.Rev (antibody, V domains shown)
VH: not shown
VL: EIVLTQSPGTLSLSPGERATLSCRASQSVSSSYLAWYQQKPGQAPRLLIYGASSRATGIPDRFSGSGSGTDFTLTISRLEPEDFAVYYCQQYEFFGQGTKVQVD
For the molecule B12, the binding result in test [1] is recorded as “binds”.

B13: VRC18b V.Rev (antibody, V domains shown)
VH: not shown
VL: EIVLTQSPGTLSLSPGERATLSCRASQSVSSSYLAWYQQKPGQAPRLLIYGASSRATGIPDRFSGSGSGTDFTLTISRLEPEDFAVYYCQILEFFGRGTRVEMN
As to B13, in test [1], the binding result is given as “binds”.

B14: VRC01 UCA (antibody, V domains shown)
VH: not shown
VL: EIVLTQSPGTLSLSPGERATLSCRASQSVSSSYLAWYQQKPGQAPRLLIYGASSRATGIPDRFSGSGSGTDFTLTISRLEPEDFAVYYCQQYEFFGQGTKLEIK
notes: also called VRC01 lineage unmutated common ancestor; VRC01 UCA IgG
The term Kd denotes the free concentration of one partner at which half of the binding sites on the other are occupied at equilibrium, for simple one-to-one binding. A higher Kd goes with a looser complex. By koff is commonly meant the first-order rate constant of dissociation. One may read the kon as the rate constant with which the complex forms. A higher kon goes with faster complex formation. As for B14, in the test with eOD-GT8 (24-mer), the binding result is reported as “binds”. Further, the binding result with eOD-GT8 (heptamer) was “binds”. Further, the Kd in [3] is < 0.1 nM and 0.25 nM. Further, in test [4], the Kd was 2400 nM and 2500 nM; the koff was 0.068 s⁻¹; the kon was 3000 M⁻¹ s⁻¹.

B15: VRC03 V.Rev (antibody, V domains shown)
VH: not shown
VL: EIVLTQSPGTLSLSPGERATLSCRASQSVSSSYLAWYQQKPGQAPRLLIYGASSRATGIPDRFSGSGSGTDFTLTISRLEPEDFAVYYCQQFEFFGLGSELEVH
Regarding B15, in test [1], the binding result is on record as “binds”.

Values taken from article PMC6303191 (Immunity, 2018).
